Laboratory results as given in IntAct's records for PubMed 31515488.

B1: Low-density lipoprotein receptor class A domain-containing protein 1 (Homo sapiens), Q5T700 (parent)
chain: MNKVFPQGENGYTAAESKAHPGGEAGGGHLCCSRRGACLSASLLLLLATVAALIALVTILGLPSCTPGAQACITLTNRTGFLCHDQRSCIPASGVCDGVRTCTHGEDEDESLCRDVPQSLPHFLVAHCGDPASWIYSDQKCDGTNNCGDCSDELSPVTVCPPCGPGWWRCPSTFFKYCDCIPRHLCRDHVQHCSDWSDEYACPGP
B2: Leucine rich adaptor protein 1 (Homo sapiens), Q96LR2 (parent)
chain: MEGTVESQTPDLRDVEGKVGRKTPEGLLRGLRGECELGTSGALLLPGASSTGHDLGDKIMALKMELAYLRAIDVKILQQLVTLNEGIEAVRWLLEERGTLTSHCSSLTSSQYSLTGGSPGRSRRGSWDSLPDTSTTDRLDSVSIGSFLDTVAPSELDEQGPPGAPRSEMDWAKVIAGGERARTEVDVAATRLGSLRAVWKPPGERLQGGPPESPEDESAKLGFEAHWFWEQCQDDVTFL
partner: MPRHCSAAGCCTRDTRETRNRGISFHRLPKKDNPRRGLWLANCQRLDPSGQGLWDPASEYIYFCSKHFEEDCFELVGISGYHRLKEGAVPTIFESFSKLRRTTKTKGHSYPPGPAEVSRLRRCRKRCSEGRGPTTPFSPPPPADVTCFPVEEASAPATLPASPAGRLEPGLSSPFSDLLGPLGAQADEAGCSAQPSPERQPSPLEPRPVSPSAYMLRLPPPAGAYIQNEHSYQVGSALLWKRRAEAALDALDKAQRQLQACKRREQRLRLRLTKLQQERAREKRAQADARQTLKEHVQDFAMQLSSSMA
B3: Syntaxin-3 (Homo sapiens), Q13277 (parent)
chain: MKDRLEQLKAKQLTQDDDTDAVEIAIDNTAFMDEFFSEIEETRLNIDKISEHVEEAKKLYSIILSAPIPEPKTKDDLEQLTTEIKKRANNVRNKLKSMEKHIEEDEVRSSADLRIRKSQHSVLSRKFVEVMTKYNEAQVDFRERSKGRIQRQLEITGKKTTDEELEEMLESGNPAIFTSGIIDSQISKQALSEIEGRHKDIVRLESSIKELHDMFMDIAMLVENQGEMLDNIELNVMHTVDHVEKARDETKKAVKYQSQARKKLIIIIVLVVVLLGILALIIGLSVGLN
partner: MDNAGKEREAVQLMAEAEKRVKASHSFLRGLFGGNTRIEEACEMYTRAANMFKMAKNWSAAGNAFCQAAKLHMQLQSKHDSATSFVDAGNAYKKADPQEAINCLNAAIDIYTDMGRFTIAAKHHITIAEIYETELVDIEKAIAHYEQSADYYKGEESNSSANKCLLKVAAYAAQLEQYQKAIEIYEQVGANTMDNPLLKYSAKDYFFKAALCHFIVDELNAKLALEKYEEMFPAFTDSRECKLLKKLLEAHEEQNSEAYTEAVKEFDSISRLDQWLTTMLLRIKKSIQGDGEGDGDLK
B4: Serine/threonine-protein kinase PAK 5 (Homo sapiens), Q9P286 (parent)
chain: MFGKKKKKIEISGPSNFEHRVHTGFDPQEQKFTGLPQQWHSLLADTANRPKPMVDPSCITPIQLAPMKTIVRGNKPCKETSINGLLEDFDNISVTRSNSLRKESPPTPDQGASSHGPGHAEENGFITFSQYSSESDTTADYTTEKYREKSLYGDDLDPYYRGSHAAKQNGHVMKMKHGEAYYSEVKPLKSDFARFSADYHSHLDSLSKPSEYSDLKWEYQRASSSSPLDYSFQFTPSRTAGTSGCSKESLAYSESEWGPSLDDYDRRPKSSYLNQTSPQPTMRQRSRSGSGLQEPMMPFGASAFKTHPQGHSYNSYTYPRLSEPTMCIPKVDYDRAQMVLSPPLSGSDTYPRGPAKLPQSQSKSGYSSSSHQYPSGYHKATLYHHPSLQSSSQYISTASYLSSLSLSSSTYPPPSWGSSSDQQPSRVSHEQFRAALQLVVSPGDPREYLANFIKIGEGSTGIVCIATEKHTGKQVAVKKMDLRKQQRRELLFNEVVIMRDYHHDNVVDMYSSYLVGDELWVVMEFLEGGALTDIVTHTRMNEEQIATVCLSVLRALSYLHNQGVIHRDIKSDSILLTSDGRIKLSDFGFCAQVSKEVPKRKSLVGTPYWMAPEVISRLPYGTEVDIWSLGIMVIEMIDGEPPYFNEPPLQAMRRIRDSLPPRVKDLHKVSSVLRGFLDLMLVREPSQRATAQELLGHPFLKLAGPPSCIVPLMRQYRHH
partner: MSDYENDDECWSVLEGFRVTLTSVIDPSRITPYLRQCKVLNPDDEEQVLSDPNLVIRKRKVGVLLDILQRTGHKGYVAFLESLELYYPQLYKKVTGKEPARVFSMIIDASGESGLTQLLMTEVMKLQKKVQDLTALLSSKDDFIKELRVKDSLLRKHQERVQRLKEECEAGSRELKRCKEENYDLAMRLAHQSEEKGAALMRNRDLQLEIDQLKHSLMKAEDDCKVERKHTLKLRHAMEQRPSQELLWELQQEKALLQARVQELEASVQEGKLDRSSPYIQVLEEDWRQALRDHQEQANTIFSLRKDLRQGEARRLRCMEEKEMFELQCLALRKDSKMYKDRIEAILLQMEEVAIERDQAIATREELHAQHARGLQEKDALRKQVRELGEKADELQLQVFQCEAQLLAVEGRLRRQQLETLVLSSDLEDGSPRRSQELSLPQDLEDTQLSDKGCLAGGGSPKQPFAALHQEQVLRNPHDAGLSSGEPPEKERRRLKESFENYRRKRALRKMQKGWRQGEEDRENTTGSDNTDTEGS
B5: Endothelial transcription factor GATA-2 (Homo sapiens), P23769 (parent)
chain: MEVAPEQPRWMAHPAVLNAQHPDSHHPGLAHNYMEPAQLLPPDEVDVFFNHLDSQGNPYYANPAHARARVSYSPAHARLTGGQMCRPHLLHSPGLPWLDGGKAALSAAAAHHHNPWTVSPFSKTPLHPSAAGGPGGPLSVYPGAGGGSGGGSGSSVASLTPTAAHSGSHLFGFPPTPPKEVSPDPSTTGAASPASSSAGGSAARGEDKDGVKYQVSLTESMKMESGSPLRPGLATMGTQPATHHPIPTYPSYVPAAAHDYSSGLFHPGGFLGGPASSFTPKQRSKARSCSEGRECVNCGATATPLWRRDGTGHYLCNACGLYHKMNGQNRPLIKPKRRLSAARRAGTCCANCQTTTTTLWRRNANGDPVCNACGLYYKLHNVNRPLTMKKEGIQTRNRKMSNKSKKSKKGAECFEELSKCMQEKSSPFSAAALAGHMAPVGHLPPFSHSGHILPTPTPIHPSSSLSFGHPHPSSMVTAMG
B6: Stabilizer of axonemal microtubules 1 (Homo sapiens), Q8IYX7 (parent)
chain: MKTKCICELCSCGRHHCPHLPTKIYDKTEKPCLLSEYTENYPFYHSYLPRESFKPRREYQKGPIPMEGLTTSRRDFGPHKVAPVKVHQYDQFVPSEENMDLLTTYKKDYNPYPVCRVDPIKPRDSKYPCSDKMECLPTYKADYLPWNQPRREPLRLEHKYQPASVRFDNRTTHQDDYPIKGLVKTISCKPLAMPKLCNIPLEDVTNYKMSYVAHPVEKRFVHEAEKFRPCEIPFESLTTQKQSYRGLMGEPAKSLKPLARPPGLDMPFCNTTEFRDKYQAWPMPRMFSKAPITYVPPEDRMDLLTTVQAHYTCPKGAPAQSCRPALQIKKCGRFEGSSTTKDDYKQWSSMRTEPVKPVPQLDLPTEPLDCLTTTRAHYVPHLPINTKSCKPHWSGPRGNVPVESQTTYTISFTPKEMGRCLASYPEPPGYTFEEVDALGHRIYKPVSQAGSQQSSHLSVDDSENPNQRELEVLA
B7: "N-acyl-aromatic-L-amino acid amidohydrolase (carboxylate-forming)" (Homo sapiens), Q96HD9 (parent)
chain: MCSLPVPREPLRRVAVTGGTHGNEMSGVYLARHWLHAPAELQRASFSAVPVLANPAATSGCRRYVDHDLNRTFTSSFLNSRPTPDDPYEVTRARELNQLLGPKASGQAFDFVLDLHNTTANMGTCLIAKSSHEVFAMHLCRHLQLQYPELSCQVFLYQRSGEESYNLDSVAKNGLGLELGPQPQGVLRADIFSRMRTLVATVLDFIELFNQGTAFPAFEMEAYRPVGVVDFPRTEAGHLAGTVHPQLQDRDFQPLQPGAPIFQMFSGEDLLYEGESTVYPVFINEAAYYEKGVAFVQTEKFTFTVPAMPALTPAPSPAS
partner: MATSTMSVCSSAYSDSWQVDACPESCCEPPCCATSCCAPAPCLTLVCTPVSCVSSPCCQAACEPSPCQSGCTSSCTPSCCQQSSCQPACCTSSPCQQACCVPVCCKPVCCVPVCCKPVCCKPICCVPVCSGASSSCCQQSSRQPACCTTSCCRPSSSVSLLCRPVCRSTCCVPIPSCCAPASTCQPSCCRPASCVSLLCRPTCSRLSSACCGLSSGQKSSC
B8: Spindle and kinetochore-associated protein 3 (Homo sapiens), Q8IX90 (parent)
chain: MDPIRSFCGKLRSLASTLDCETARLQRALDGEESDFEDYPMRILYDLHSEVQTLKDDVNILLDKARLENQEGIDFIKATKVLMEKNSMDIMKIREYFQKYGYSPRVKKNSVHEQEAINSDPELSNCENFQKTDVKDDLSDPPVASSCISEKSPRSPQLSDFGLERYIVSQVLPNPPQAVNNYKEEPVIVTPPTKQSLVKVLKTPKCALKMDDFECVTPKLEHFGISEYTMCLNEDYTMGLKNARNNKSEEAIDTESRLNDNVFATPSPIIQQLEKSDAEYTNSPLVPTFCTPGLKIPSTKNSIALVSTNYPLSKTNSSSNDLEVEDRTSLVLNSDTCFENLTDPSSPTISSYENLLRTPTPPEVTKIPEDILQLLSKYNSNLATPIAIKAVPPSKRFLKHGQNIRDVSNKEN

Variants of: B1
Settings: with tm190_human TMEM190, Q8WZ59
Sequence of tm190_human TMEM190, Q8WZ59 (Q8WZ59 whole entry): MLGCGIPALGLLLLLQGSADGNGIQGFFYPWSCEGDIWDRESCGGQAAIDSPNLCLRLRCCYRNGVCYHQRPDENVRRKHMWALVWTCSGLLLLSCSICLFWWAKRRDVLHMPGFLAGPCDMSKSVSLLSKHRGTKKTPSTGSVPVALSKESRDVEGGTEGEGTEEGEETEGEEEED

Row | Variant | effect of a mutation on the interaction
1 | E108K | with no effect

Variants of: B1
Settings: with tm218_human TMEM218, A2RU14
Sequence of tm218_human TMEM218, A2RU14 (A2RU14 whole entry): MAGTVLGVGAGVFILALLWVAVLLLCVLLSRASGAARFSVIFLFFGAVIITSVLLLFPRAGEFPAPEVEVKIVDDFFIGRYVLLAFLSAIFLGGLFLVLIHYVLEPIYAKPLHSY

Row | Variant | effect of a mutation on the interaction
2 | E108K | with no effect

Variants of: B1
Settings: with bni3l_human BNIP3L

Row | Variant | effect of a mutation on the interaction
3 | E108K | with no effect
4 | G105S | with no effect

Variants of: B1
Settings: with tm147_human TMEM147, Q9BVK8
Sequence of tm147_human TMEM147, Q9BVK8 (Q9BVK8 whole entry): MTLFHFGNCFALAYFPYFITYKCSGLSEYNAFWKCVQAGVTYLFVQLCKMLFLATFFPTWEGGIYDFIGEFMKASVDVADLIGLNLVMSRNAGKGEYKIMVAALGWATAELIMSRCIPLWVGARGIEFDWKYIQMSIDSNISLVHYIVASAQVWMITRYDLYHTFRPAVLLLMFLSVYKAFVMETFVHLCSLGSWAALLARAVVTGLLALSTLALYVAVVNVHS

Row | Variant | effect of a mutation on the interaction
5 | E108K | with no effect
6 | G105S | with no effect

Variants of: B1
Settings: with mal_human MAL

Row | Variant | effect of a mutation on the interaction
7 | E108K | with no effect
8 | G105S | with no effect

Variants of: B1
Settings: with mall_human MALL

Row | Variant | effect of a mutation on the interaction
9 | S42F | with no effect

Variants of: B1
Settings: with olfm4_human OLFM4, Q6UX06
Sequence of olfm4_human OLFM4, Q6UX06 (Q6UX06 whole entry): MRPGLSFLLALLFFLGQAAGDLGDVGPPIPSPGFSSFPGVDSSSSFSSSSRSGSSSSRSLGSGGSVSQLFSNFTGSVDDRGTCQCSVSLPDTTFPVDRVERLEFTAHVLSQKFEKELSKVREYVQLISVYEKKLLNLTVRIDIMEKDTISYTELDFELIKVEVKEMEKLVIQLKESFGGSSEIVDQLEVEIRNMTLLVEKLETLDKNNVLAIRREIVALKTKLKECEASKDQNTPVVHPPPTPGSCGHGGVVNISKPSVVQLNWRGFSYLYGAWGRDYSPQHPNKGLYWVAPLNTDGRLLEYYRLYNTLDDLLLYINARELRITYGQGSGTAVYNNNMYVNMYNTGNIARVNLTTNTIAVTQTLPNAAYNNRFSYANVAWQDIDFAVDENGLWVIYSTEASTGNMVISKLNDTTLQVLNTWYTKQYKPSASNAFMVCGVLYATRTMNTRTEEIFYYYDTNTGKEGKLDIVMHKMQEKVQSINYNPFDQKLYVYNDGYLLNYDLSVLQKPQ

Row | Variant | effect of a mutation on the interaction
10 | S42F | with no effect

Variants of: B2
Settings: with thap7_human THAP7, Q9BT49

Row | Variant | effect of a mutation on the interaction
11 | Q207R | disrupting interaction strength
12 | M60L | with no effect

Variants of: B3
Settings: with snab_human NAPB

Row | Variant | effect of a mutation on the interaction
13 | H198Y | with no effect
14 | G276S | with no effect

Variants of: B4
Settings: with card9_human CARD9, Q9H257

Row | Variant | effect of a mutation on the interaction
15 | R335P | with no effect

Variants of: B5
Settings: with fhl3_human FHL3, Q13643
Target sequence in this assay (Q13643 whole entry): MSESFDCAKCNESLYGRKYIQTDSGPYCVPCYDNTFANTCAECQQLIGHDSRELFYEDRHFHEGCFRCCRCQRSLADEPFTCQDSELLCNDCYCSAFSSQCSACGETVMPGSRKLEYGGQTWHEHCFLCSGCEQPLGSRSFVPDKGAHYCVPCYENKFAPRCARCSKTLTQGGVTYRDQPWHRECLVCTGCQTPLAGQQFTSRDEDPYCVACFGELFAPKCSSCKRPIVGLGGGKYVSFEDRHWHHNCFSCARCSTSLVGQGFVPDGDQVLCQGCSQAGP

Row | Variant | effect of a mutation on the interaction
16 | A164T | with no effect

Variants of: B5
Settings: with psa3_human PSMA3, P25788
Sequence of psa3_human PSMA3, P25788 (P25788 whole entry): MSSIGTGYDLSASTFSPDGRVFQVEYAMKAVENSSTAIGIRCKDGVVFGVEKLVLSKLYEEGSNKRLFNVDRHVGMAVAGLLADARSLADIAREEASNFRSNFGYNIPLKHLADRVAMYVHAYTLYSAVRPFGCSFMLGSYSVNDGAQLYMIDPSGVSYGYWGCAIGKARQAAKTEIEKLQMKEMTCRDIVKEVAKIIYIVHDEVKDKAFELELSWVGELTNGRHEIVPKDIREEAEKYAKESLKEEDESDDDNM

Row | Variant | effect of a mutation on the interaction
17 | A164T | with no effect

Variants of: B5
Settings: with tri23_human TRIM23, P36406
Sequence of tri23_human TRIM23, P36406 (P36406 whole entry): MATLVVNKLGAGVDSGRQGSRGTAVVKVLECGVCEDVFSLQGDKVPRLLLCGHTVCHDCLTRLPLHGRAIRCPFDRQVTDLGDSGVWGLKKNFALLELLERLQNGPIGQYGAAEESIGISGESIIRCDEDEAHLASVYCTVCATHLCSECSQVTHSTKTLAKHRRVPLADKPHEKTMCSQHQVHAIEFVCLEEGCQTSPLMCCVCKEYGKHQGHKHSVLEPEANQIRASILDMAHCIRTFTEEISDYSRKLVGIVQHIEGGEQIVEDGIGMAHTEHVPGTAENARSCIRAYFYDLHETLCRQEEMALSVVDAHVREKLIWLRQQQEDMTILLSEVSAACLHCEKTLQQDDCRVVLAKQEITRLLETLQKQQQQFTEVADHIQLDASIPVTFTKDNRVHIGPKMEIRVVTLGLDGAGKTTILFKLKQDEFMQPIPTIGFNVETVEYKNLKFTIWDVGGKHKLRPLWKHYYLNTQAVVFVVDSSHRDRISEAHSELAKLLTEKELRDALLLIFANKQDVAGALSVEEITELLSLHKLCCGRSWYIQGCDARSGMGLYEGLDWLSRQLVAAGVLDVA

Row | Variant | effect of a mutation on the interaction
18 | A164T | with no effect

Variants of: B5
Settings: with mdfi_human MDFI

Row | Variant | effect of a mutation on the interaction
19 | A164T | with no effect

Variants of: B6
Settings: with rbtn2_human LMO2, P25791
Sequence of rbtn2_human LMO2, P25791 (P25791 whole entry): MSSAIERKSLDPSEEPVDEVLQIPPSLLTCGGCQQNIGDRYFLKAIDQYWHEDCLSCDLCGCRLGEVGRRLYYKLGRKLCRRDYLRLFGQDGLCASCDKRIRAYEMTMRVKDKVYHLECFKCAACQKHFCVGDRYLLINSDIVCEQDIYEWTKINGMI

Row | Variant | effect of a mutation on the interaction
20 | D118G | with no effect
21 | N464K | disrupting interaction strength

Variants of: B6
Settings: with fhl3_human FHL3, Q13643
Target sequence in this assay (Q13643 whole entry): as the sequence (Q13643 whole entry) above

Row | Variant | effect of a mutation on the interaction
22 | D118G | with no effect
23 | N464K | with no effect

Variants of: B7
Settings: with kr103_human KRTAP10-3, P60369

Row | Variant | effect of a mutation on the interaction
24 | R8Q | with no effect

Variants of: B8
Settings: with ska1_human SKA1, Q96BD8
Sequence of ska1_human SKA1, Q96BD8 (Q96BD8 whole entry): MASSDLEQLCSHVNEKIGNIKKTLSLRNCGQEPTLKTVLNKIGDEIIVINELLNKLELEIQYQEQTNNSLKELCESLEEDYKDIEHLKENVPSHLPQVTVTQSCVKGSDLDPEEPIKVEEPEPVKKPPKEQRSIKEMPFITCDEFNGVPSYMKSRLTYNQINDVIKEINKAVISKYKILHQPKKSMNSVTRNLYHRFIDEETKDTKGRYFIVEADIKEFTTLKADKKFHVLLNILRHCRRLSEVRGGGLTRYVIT

Row | Variant | effect of a mutation on the interaction
25 | V187I | with no effect
